Test results from the supplement of paper PMC10567573.

B1: TRAF3IP2 (parent)
chain: APWNYHYHCPGSPDHQVPYGHDYP

Variants of: B1
Test: protein stability index of a GFP-peptide fusion (GPS, HEK-293T) (PSI 1-6); higher = more stable
Conditions: c terminus: a fixed tail appended
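Further: lentivirally expressed fusions sorted by FACS into six bins by GFP to DsRed ratio, PSI derived from sequencing read proportions per bin multiplied by bin number.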

| Variant | protein stability index |
| --- | --- |
| APWNYHYHCPGSPDHQVQYGHDYP | 2.54 |
| APWNYHYHCPGSPDHQVCYGHDYP | 2.97 |
| APWNYHYHCPGSPDHQVRYGHDYP | 2 |
| APWNYHYHCPGSPDHQVGYGHDYP | 1.92 |
| APWNYHYHCPGSPDHQVNYGHDYP | 2.5 |
| APWNYHYHCPGSPDHQVEYGHDYP | 2.54 |
| APWNYHYHCPGSPDHQVAYGHDYP | 3.19 |
| VPWNYHYHCPGSPDHQVPYGHDYP | 1.71 |
| MPWNYHYHCPGSPDHQVPYGHDYP | 2.5 |
| CPWNYHYHCPGSPDHQVPYGHDYP | 2.72 |
| HPWNYHYHCPGSPDHQVPYGHDYP | 3.12 |
| FPWNYHYHCPGSPDHQVPYGHDYP | 2.12 |
| SPWNYHYHCPGSPDHQVPYGHDYP | 2.18 |
| LPWNYHYHCPGSPDHQVPYGHDYP | 2.08 |
| APWNYHYHCPGSPDHHVPYGHDYP | 2.97 |
| APWNYHYHCPGSPDHDVPYGHDYP | 2.49 |
| APWNYHYHCPGSPDHEVPYGHDYP | 2.6 |
| APWNYHYHCPGSPDHFVPYGHDYP | 2.19 |
| APWNYHYHCPGSPDHGVPYGHDYP | 1.81 |
| APWNYHYHCPGSPDHPVPYGHDYP | 2 |
| APWNYHYHCPGSPDHKVPYGHDYP | 2.15 |
| APWNYHYHCPGIPDHQVPYGHDYP | 2.27 |
| APWNYHYHCPGEPDHQVPYGHDYP | 2.37 |
| APWNYHYHCPGGPDHQVPYGHDYP | 2.36 |

| Variant | protein stability index |
| --- | --- |
| APWNYHYHCPGYPDHQVPYGHDYP | 2.21 |
| APWNYHYHCPGLPDHQVPYGHDYP | 2.47 |
| APWNYHYHCPGTPDHQVPYGHDYP | 2.35 |
| APKNYHYHCPGSPDHQVPYGHDYP | 3.05 |
| APNNYHYHCPGSPDHQVPYGHDYP | 4.12 |
| APQNYHYHCPGSPDHQVPYGHDYP | 3.54 |
| APFNYHYHCPGSPDHQVPYGHDYP | 2.22 |
| APWNYHYMCPGSPDHQVPYGHDYP | 1.69 |
| APWNYHYPCPGSPDHQVPYGHDYP | 1.99 |
| APWNYHYECPGSPDHQVPYGHDYP | 2.25 |
| APWNYHYWCPGSPDHQVPYGHDYP | 2.26 |
| APWNYHYNCPGSPDHQVPYGHDYP | 2.1 |
| APWNYHYCCPGSPDHQVPYGHDYP | 2.42 |
| APWNYHYRCPGSPDHQVPYGHDYP | 1.66 |
| APWNYTYHCPGSPDHQVPYGHDYP | 2.94 |
| APWNYMYHCPGSPDHQVPYGHDYP | 2.54 |
| APWNYPYHCPGSPDHQVPYGHDYP | 3.38 |
| APWNYDYHCPGSPDHQVPYGHDYP | 3.57 |
| APWNYCYHCPGSPDHQVPYGHDYP | 3.34 |
| APWNYLYHCPGSPDHQVPYGHDYP | 2.39 |
| APWNYYYHCPGSPDHQVPYGHDYP | 2.02 |
| APWNYQYHCPGSPDHQVPYGHDYP | 2.97 |
| APWNYHYHCPGSPDHQVPYGHKYP | 2.73 |
| APWNYHYHCPGSPDHQVPYGHMYP | 1.95 |

| Variant | protein stability index |
| --- | --- |
| APWNYHYHCPGSPDHQVPYGHGYP | 2.41 |
| APWNYHYHCPGSPDHQVPYGHVYP | 1.6 |
| APWNYHYHCPGSPDHQVPYGHWYP | 2.16 |
| APWNYHYHCPGSPDHQVPYGHRYP | 2.18 |
| APWNYHYHCPGSPDHQVPYGHTYP | 2.42 |
| APWNYHYHCPGSPDHQVPYGHSYP | 2.33 |
| APWNYHYHCPGSPDHQVPYGHYYP | 2.08 |
| APWNYHYHCPGSPDCQVPYGHDYP | 1.97 |
| APWNYHYHCPGSPDAQVPYGHDYP | 2.1 |
| APWNYHYHCPGSPDSQVPYGHDYP | 2.22 |
| APWNYHYHCPGSPDNQVPYGHDYP | 2.48 |
| APWNYHYHCPGSPDEQVPYGHDYP | 2.43 |
| APWNYHYHCPGSPDVQVPYGHDYP | 2.31 |
| APWNYHYHCPGSPDIQVPYGHDYP | 2.61 |
| APWNYHQHCPGSPDHQVPYGHDYP | 3.83 |
| APWNYHRHCPGSPDHQVPYGHDYP | 3.09 |
| APWNYHDHCPGSPDHQVPYGHDYP | 3.79 |
| APWNYHVHCPGSPDHQVPYGHDYP | 2.67 |
| APWNYHLHCPGSPDHQVPYGHDYP | 2.6 |
| APWNYHFHCPGSPDHQVPYGHDYP | 2.4 |
| APWNYHGHCPGSPDHQVPYGHDYP | 3.43 |
| APWNYHYHCPGSPDHQVPYPHDYP | 2.26 |
| APWNYHYHCPGSPDHQVPYDHDYP | 2.95 |
| APWNYHYHCPGSPDHQVPYCHDYP | 2.42 |

| Variant | protein stability index |
| --- | --- |
| APWNYHYHCPGSPDHQVPYMHDYP | 1.93 |
| APWNYHYHCPGSPDHQVPYHHDYP | 2.35 |
| APWNYHYHCPGSPDHQVPYFHDYP | 1.52 |
| APWNYHYHCPGSPDHQVPYQHDYP | 2.19 |
| APWNYHYHCPGSPDHQVPYRHDYP | 2.45 |
| APWNYHYHCPGSPDHQVPYNHDYP | 2.44 |
| APWNYHYHCPGSPDHQVPYAHDYP | 2.58 |
| APWNYHYHCPGSPDHQVPYSHDYP | 2.28 |
| APWNYHYHCPGSPDHQVPAGHDYP | 2.47 |
| APWNYHYHCPGSPDHQVPLGHDYP | 2.46 |
| APWNYHYHCPGSPDHQVPWGHDYP | 1.82 |
| APWNYHYHCPGSPDHQVPSGHDYP | 2.44 |
| APWNYHYHCPGSPDHQVPKGHDYP | 2.51 |
| APWNYHYHCPGSPDHQVPVGHDYP | 2.7 |
| APWNYHYHCPGSPDHQVPHGHDYP | 2.85 |
| APWNYHYHCPGSPDHQVPIGHDYP | 2.66 |
| APWNYHYHCTGSPDHQVPYGHDYP | 1.86 |
| APWNYHYHCFGSPDHQVPYGHDYP | 2.07 |
| APWNYHYHCKGSPDHQVPYGHDYP | 2.4 |
| APWNYHYHCRGSPDHQVPYGHDYP | 1.29 |
| APWNYHYHCIGSPDHQVPYGHDYP | 1.66 |
| APWNYHYHCQGSPDHQVPYGHDYP | 2.04 |
| APWNYHYHCMGSPDHQVPYGHDYP | 2.02 |
| APWNYHYHCNGSPDHQVPYGHDYP | 2.08 |

| Variant | protein stability index |
| --- | --- |
| APWNYHYHCSGSPDHQVPYGHDYP | 2.08 |
| APWNYHYHCPGSPDHQVPYGHDDP | 3.83 |
| APWNYHYHCPGSPDHQVPYGHDNP | 2.08 |
| APWNYHYHCPGSPDHQVPYGHDRP | 2.9 |
| APWNYHYHCPGSPDHQVPYGHDKP | 3.12 |
| APWNYHYHCPGSPDHQVPYGHDCP | 1.91 |
| APWNYHYHCPGSPDHQVPYGHDFP | 2 |
| APWNYHYHCPGSPDHQVPYGHDLP | 2.27 |
| APWNYHYHCPGSPDHQVPYGHDHP | 1.88 |
| APWNYHYHCPGSPDHQVPYGHDYR | 2.73 |
| APWNYHYHCPGSPDHQVPYGHDYH | 3.02 |
| APWNYHYHCPGSPDHQVPYGHDYY | 1.86 |
| APWNYHYHCPGSPDHQVPYGHDYE | 4.07 |
| APWNYHYHCPGSPDHQVPYGHDYT | 2.63 |
| APWNYHYHCPGSPDHQVPYGHDYC | 2.02 |
| APWNYHYHCPGSPDHQVPYGHDYA | 2.51 |
| APWNYHYHCPGSPDHQVPYGHDYI | 1.72 |
| APWNYHYHCPNSPDHQVPYGHDYP | 1.87 |
| APWNYHYHCPDSPDHQVPYGHDYP | 2.21 |
| APWNYHYHCPWSPDHQVPYGHDYP | 2.18 |
| APWNYHYHCPLSPDHQVPYGHDYP | 2.31 |
| APWNYHYHCPFSPDHQVPYGHDYP | 2.73 |
| APWNYHYHCPGSPDHQQPYGHDYP | 2.61 |
| APWNYHYHCPGSPDHQCPYGHDYP | 2.45 |

| Variant | protein stability index |
| --- | --- |
| APWNYHYHCPGSPDHQEPYGHDYP | 2.95 |
| APWNYHYHCPGSPDHQKPYGHDYP | 2.53 |
| APWNYHYHCPGSPDHQLPYGHDYP | 2.81 |
| APWNYHYHCPGSPDHQMPYGHDYP | 1.88 |
| APWNYHYHCPGSPDHQAPYGHDYP | 2.06 |
| APWNYHYHCPGSPDHQPPYGHDYP | 2.6 |
| APWNYHYHCPGSPDHQFPYGHDYP | 1.73 |
| AMWNYHYHCPGSPDHQVPYGHDYP | 2.07 |
| ARWNYHYHCPGSPDHQVPYGHDYP | 2.28 |
| AHWNYHYHCPGSPDHQVPYGHDYP | 2.26 |
| AGWNYHYHCPGSPDHQVPYGHDYP | 1.59 |
| AKWNYHYHCPGSPDHQVPYGHDYP | 2.04 |
| AIWNYHYHCPGSPDHQVPYGHDYP | 1.58 |
| AWWNYHYHCPGSPDHQVPYGHDYP | 1.27 |
| ACWNYHYHCPGSPDHQVPYGHDYP | 2.15 |
| APWNYHYHCPGSPDHQVPYGIDYP | 1.74 |
| APWNYHYHCPGSPDHQVPYGYDYP | 2.35 |
| APWNYHYHCPGSPDHQVPYGGDYP | 1.91 |
| APWNYHYHCPGSPDHQVPYGQDYP | 2.17 |
| APWNYHYHCPGSPDHQVPYGMDYP | 1.67 |
| APWNYHYHCPGSPDHQVPYGLDYP | 1.52 |
| APWNYHYHCPGSPDHQVPYGTDYP | 2.03 |
| APWNYHYHCPGSPDHQVPYGDDYP | 2.79 |
| APWNYHYHCPGSPDHQVPYGSDYP | 2.05 |

| Variant | protein stability index |
| --- | --- |
| APWNYHYHCPGSPDHQVPYGFDYP | 1.56 |
| APWNYHYHCPGSPEHQVPYGHDYP | 2.72 |
| APWNYHYHCPGSPFHQVPYGHDYP | 2.75 |
| APWNYHYHCPGSPHHQVPYGHDYP | 2.25 |
| APWNYHYHCPGSPIHQVPYGHDYP | 2.08 |
| APWNYHYHCPGSPYHQVPYGHDYP | 1.53 |
| APWNYHYHCPGSPRHQVPYGHDYP | 1.91 |
| APWNYHYHCPGSPLHQVPYGHDYP | 2.6 |
| APWNYHYHCPGSPVHQVPYGHDYP | 2.09 |
| APWNYHYHCPGSPNHQVPYGHDYP | 2.11 |
| APWNYHYHFPGSPDHQVPYGHDYP | 1.93 |
| APWNYHYHMPGSPDHQVPYGHDYP | 2.73 |
| APWNYHYHDPGSPDHQVPYGHDYP | 2.59 |
| APWNYHYHLPGSPDHQVPYGHDYP | 1.98 |
| APWNYHYHGPGSPDHQVPYGHDYP | 2.05 |
| APWNYHYHQPGSPDHQVPYGHDYP | 2.16 |
| APWNYHYHAPGSPDHQVPYGHDYP | 2.08 |
| APWNYHYHTPGSPDHQVPYGHDYP | 1.69 |
| APWNYHYHYPGSPDHQVPYGHDYP | 2.16 |
| APWNYHYHCPGSHDHQVPYGHDYP | 1.79 |
| APWNYHYHCPGSNDHQVPYGHDYP | 1.83 |
| APWNYHYHCPGSCDHQVPYGHDYP | 1.94 |
| APWNYHYHCPGSMDHQVPYGHDYP | 2.12 |
| APWNYHYHCPGSTDHQVPYGHDYP | 2.24 |

| Variant | protein stability index |
| --- | --- |
| APWNYHYHCPGSSDHQVPYGHDYP | 2.14 |
| APWNYHYHCPGSEDHQVPYGHDYP | 3.05 |
| APWNYHYHCPGSFDHQVPYGHDYP | 2.78 |
| APWMYHYHCPGSPDHQVPYGHDYP | 2.78 |
| APWTYHYHCPGSPDHQVPYGHDYP | 2.63 |
| APWIYHYHCPGSPDHQVPYGHDYP | 2.43 |
| APWAYHYHCPGSPDHQVPYGHDYP | 1.7 |
| APWPYHYHCPGSPDHQVPYGHDYP | 2.59 |
| APWKYHYHCPGSPDHQVPYGHDYP | 2.24 |
| APWVYHYHCPGSPDHQVPYGHDYP | 2.12 |
| APWWYHYHCPGSPDHQVPYGHDYP | 1.51 |
| APWHYHYHCPGSPDHQVPYGHDYP | 1.97 |
| APWNNHYHCPGSPDHQVPYGHDYP | 3.43 |
| APWNWHYHCPGSPDHQVPYGHDYP | 2.91 |
| APWNEHYHCPGSPDHQVPYGHDYP | 4.08 |
| APWNMHYHCPGSPDHQVPYGHDYP | 3 |
| APWNRHYHCPGSPDHQVPYGHDYP | 3.04 |
| APWNVHYHCPGSPDHQVPYGHDYP | 3.21 |
| APWNTHYHCPGSPDHQVPYGHDYP | 3.52 |
| APWNSHYHCPGSPDHQVPYGHDYP | 3.47 |
